Measurements published in the supplement of paper PMC7877785.
± gives the uncertainty stated by the source.

Assay: self-splicing fitness, log relative to wild type (ln ratio); higher = more splicing; Tetrahymena group I intron in knt gene, E. coli kanamycin selection, DiMSum; sequences stand for … in CUCUCU…GGAGGGAAAAGUUAUCAGGCAUGCACCUGGUAGCUAGUCUUUAAACCAAUAGAUUGCAUCGGUUUAAAAGGCAAGACCGUCAAAUUGCGGGAAAGGGGUCAACAGCCGUUCAGUACCAAGUCUCAGGGGAAACUUUGAGAUGGCCUUGCAAAGGGUAUGGUAAUAAGCUGACGGACAUGGUCCUAACCACGCAGCCAAGUCCUAAGUCAACAGAUCUUCUGUUGAUAUGGAUGCAGUUCACAGACUAAAUGUCGGUCGGGGAAGAUGUAUUCUUCUCAUAAGAUAUAGUCGGACCUCUCCUUAAUGGGAGCUAGCGGAUGAAGUGAUGCAACACUGGAGCCGCUGGGAACUAAUUUGUAUGCGAAAGUAUAUUGAUUAGUUUUGGAGUACUCGUGGUCG
Summary of the method: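 Fitness was computed with DiMSum as the error-weighted combination of replicate fold changes, kanamycin versus none, each normalised to wild type. The library randomised all eight intron nucleotides of the P1ex region, with the intron placed in the knt kanamycin-resistance gene on pET-22b(+) in E. coli BL21(DE3). Six replicate transformations were grown overnight at 37°C or 30°C on LB agar with or without 25 μg/mL kanamycin, plus 100 μg/mL carbenicillin, 50 μM IPTG and 0.2% rhamnose. Pooled colonies were amplicon-sequenced on an Illumina HiSeq 2500.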

Sequence | self-splicing fitness (ln) (30 °C) | self-splicing fitness (ln) (37 °C)
GCUCAGCAAUAUUACGCAAU | -1.02 ± 0.078 | 0.487 ± 0.11
GCUCAGCAAUAUUACGCGGC | -3.83 ± 0.47 | -1.46 ± 0.26
GCUCAGCAAUAUUACGGCAG | -2.91 ± 0.22 | -2.82 ± 0.38
GCUCAGCAAUAUUACGGCUA | -0.707 ± 0.13 | -0.758 ± 0.12
GCUCAGCAAUAUUACGGGCG | -1.61 ± 0.071 | -1.22 ± 0.085
GCUCAGCAAUAUUACGGGGA | -0.491 ± 0.054 | 0.325 ± 0.075
GCUCAGCAAUAUUACGGUGA | -3.42 ± 0.25 | -1.69 ± 0.16
GCUCAGCAAUAUUACGUAGC | -1.23 ± 0.12 | -1.43 ± 0.16
GCUCAGCAAUAUUACGUCCC | -0.208 ± 0.24 | 0.272 ± 0.24
GCUCAGCAAUAUUACGUCGG | -2.71 ± 0.14 | -0.555 ± 0.15
GCUCAGCAAUAUUACGUCUA | -0.844 ± 0.1 | -0.494 ± 0.097
GCUCAGCAAUAUUACGUGGA | -1.91 ± 0.1 | -1.63 ± 0.12
GCUCAGCAAUAUUACGUUAA | -1.32 ± 0.17 | -1.28 ± 0.16
GCUGAGCAAUAUUACGAACG | -1.53 ± 0.18 | -1.12 ± 0.23
GCUGAGCAAUAUUACGAACU | -2.49 ± 0.33 | -0.576 ± 0.21
GCUGAGCAAUAUUACGAGUU | -2.73 ± 0.13 | -0.949 ± 0.12
GCUGAGCAAUAUUACGCAGG | -1.66 ± 0.13 | -1.56 ± 0.15
GCUGAGCAAUAUUACGCAGU | -4.98 ± 0.45 | -3.31 ± 0.34
GCUGAGCAAUAUUACGCCAG | -3.69 ± 0.25 | -2.73 ± 0.41
GCUGAGCAAUAUUACGCCGA |  | -1.38 ± 0.32
GCUGAGCAAUAUUACGCGAU | -2.78 ± 0.17 | -2.59 ± 0.25
GCUGAGCAAUAUUACGCGGC |  | -1.22 ± 0.41
GCUGAGCAAUAUUACGCUAG | -3.28 ± 0.16 | -1.27 ± 0.14
GCUGAGCAAUAUUACGGAAA | -2.86 ± 0.25 | -2.63 ± 0.32
GCUGAGCAAUAUUACGGCCG | -3.94 ± 0.32 | -2.37 ± 0.39

Sequence | self-splicing fitness (ln) (30 °C) | self-splicing fitness (ln) (37 °C)
GCUGAGCAAUAUUACGGGAU | -2.39 ± 0.14 | -1.34 ± 0.13
GCUGAGCAAUAUUACGGGCC | -2.39 ± 0.32 | -2.27 ± 0.39
GCUGAGCAAUAUUACGGGGC | -3.02 ± 0.24 | -3.85 ± 0.42
GCUGAGCAAUAUUACGUAGU | -2.86 ± 0.16 | -1.71 ± 0.15
GCUGAGCAAUAUUACGUAUC | -2.37 ± 0.13 | 0.164 ± 0.1
GCUGAGCAAUAUUACGUUCU | -0.944 ± 0.12 | -0.758 ± 0.15
GCUGAGCAAUAUUACGUUUU | -4.08 ± 0.26 | -3.21 ± 0.22
GCUUAGCAAUAUUACGAAAC | -1.22 ± 0.16 | -0.448 ± 0.24
GCUUAGCAAUAUUACGCACA | -1.02 ± 0.14 | 0.3 ± 0.15
GCUUAGCAAUAUUACGCACU | -0.857 ± 0.11 | 0.197 ± 0.12
GCUUAGCAAUAUUACGCAUA | -1.58 ± 0.14 | -0.612 ± 0.11
GCUUAGCAAUAUUACGCCGU | -2.31 ± 0.21 | -0.553 ± 0.18
GCUUAGCAAUAUUACGCCUU | -2.7 ± 0.21 | 0.179 ± 0.19
GCUUAGCAAUAUUACGCGCG | -0.0422 ± 0.094 | -0.149 ± 0.13
GCUUAGCAAUAUUACGCGUU | -0.427 ± 0.096 | 0.0522 ± 0.1
GCUUAGCAAUAUUACGGACA | -0.409 ± 0.13 | -1.15 ± 0.13
GCUUAGCAAUAUUACGGAGU | -2.9 ± 0.26 | -0.418 ± 0.19
GCUUAGCAAUAUUACGGGCU | -2.79 ± 0.21 | -3.26 ± 0.23
GCUUAGCAAUAUUACGGGUU | -1.95 ± 0.094 | -1.43 ± 0.14
GCUUAGCAAUAUUACGGUUA | -0.517 ± 0.11 | -0.548 ± 0.11
GCUUAGCAAUAUUACGUCAA | -2.67 ± 0.26 | -1.66 ± 0.2
GCUUAGCAAUAUUACGUGAA | -0.117 ± 0.064 | 0.311 ± 0.074
GCUUAGCAAUAUUACGUGCU | -2.78 ± 0.19 | -1.41 ± 0.18
GCUUAGCAAUAUUACGUGUG | -1.91 ± 0.054 | -1.14 ± 0.066
GCUUAGCAAUAUUACGUUUA | -1.73 ± 0.13 | -1.17 ± 0.12

Sequence | self-splicing fitness (ln) (30 °C) | self-splicing fitness (ln) (37 °C)
GGAAAGCAAUAUUACGACUA | -0.62 ± 0.12 | -0.129 ± 0.12
GGAAAGCAAUAUUACGACUC | 0.0221 ± 0.11 | -0.214 ± 0.19
GGAAAGCAAUAUUACGAUCU | -3.9 ± 0.42 | -1.68 ± 0.32
GGAAAGCAAUAUUACGAUGA | -1.68 ± 0.2 | -0.498 ± 0.2
GGAAAGCAAUAUUACGAUUC | -1.84 ± 0.16 | -0.276 ± 0.16
GGAAAGCAAUAUUACGCAAC | -3.25 ± 0.24 | -1.02 ± 0.23
GGAAAGCAAUAUUACGCCAA | -2.36 ± 0.41 | -0.527 ± 0.29
GGAAAGCAAUAUUACGCCGC | -2.48 ± 0.41 | -1.89 ± 0.49
GGAAAGCAAUAUUACGCUAC | -1.91 ± 0.26 | -1.86 ± 0.33
GGAAAGCAAUAUUACGGACA | -0.913 ± 0.092 | 0.104 ± 0.097
GGAAAGCAAUAUUACGGAGU | -3.76 ± 0.23 | -1.73 ± 0.18
GGAAAGCAAUAUUACGGCAA | -0.443 ± 0.12 | -0.141 ± 0.11
GGAAAGCAAUAUUACGGCGG | -2.47 ± 0.19 | -1.45 ± 0.2
GGAAAGCAAUAUUACGGCGU | -0.39 ± 0.071 | -0.31 ± 0.1
GGAAAGCAAUAUUACGGUGU | -2.29 ± 0.092 | -1.15 ± 0.12
GGAAAGCAAUAUUACGUAGG | -3.23 ± 0.12 | -2.23 ± 0.14
GGAAAGCAAUAUUACGUAUA | -2.2 ± 0.16 | -1.16 ± 0.18
GGAAAGCAAUAUUACGUGCC | -1.94 ± 0.19 | -2.01 ± 0.25
GGAAAGCAAUAUUACGUGGU | -3.11 ± 0.18 | -1.9 ± 0.16
GGACAGCAAUAUUACGAAAG | -3.73 ± 0.33 | -2.88 ± 0.43
GGACAGCAAUAUUACGAACC | -1.23 ± 0.27 | -0.895 ± 0.23
GGACAGCAAUAUUACGAACU | -0.198 ± 0.08 | 0.442 ± 0.083
GGACAGCAAUAUUACGAUAA | -1.81 ± 0.073 | -0.876 ± 0.08
GGACAGCAAUAUUACGCAGC | -1.1 ± 0.083 | -0.558 ± 0.085
GGACAGCAAUAUUACGCAGU | -4.28 ± 0.36 | -1.5 ± 0.24
